The data set “SEC” concerns the molecule itself. Put plainly: SEC. On the technique in general: SEC sorts molecules by how far they enter the pores of the column.
The data set “crystal structure” concerns the molecule itself. Put plainly: crystal structure.

“And” between values parts separate entries of the source, which are not always exact repeats. Identical values can stand only once.

B1: untagged C-terminally truncated human 14-3-3σ (14-3-3σΔC: residues 1-231) (domain or fragment)
chain: MERASLIQKAKLAEQAERYEDMAAFMKGAVEKGEELSCEERNLLSVAYKNVVGGQRAAWRVLSSIEQKSNEEGSEEKGPEVREYREKVETELQGVCDTVLGLLDSHLIKEAGDAESRVFYLKMKGDYYRYLAEVATGDDKKRIIDSARSAYQEAMDISKKEMPPTNPIRLGLALNFSVFHYEIANSPEEAISLAKTTFDEAMADLHTLSEDSYKDSTLIMQLLRDNLTLWT
Consider B1, for which, in the data set “SEC”, the stoichiometry N – broadly, a count of units in the complex or per binding partner – came to 2.

B2: chimera CH2 of 14-3-3σΔC Clu3 with the Gli phosphopeptide (other)
chain: GPHMERASLIQKAKLAEQAERYEDMAAFMKGAVEKGEELSCEERNLLSVAYKNVVGGQRAAWRVLSSIEQKSNEEGSAAAGPEVREYREKVETELQGVCDTVLGLLDSHLIKEAGDAESRVFYLKMKGDYYRYLAEVATGDDKKRIIDSARSAYQEAMDISKKEMPPTNPIRLGLALNFSVFHYEIANSPEEAISLAKTTFDEAMADLHTLSEDSYKDSTLIMQLLRDNLTLWTGSGSLRRASDPAQA
modifications: phosphoserine at the Ser that is Ser640 of Gli (RRApSDPAQA)
With B2, the binding result in “crystal structure” is given as “binds”.

B3: 14-3-3/HSPB6 protein-phosphopeptide chimera CH1 (14-3-3σΔC Clu3 fused through a GSGS linker to the HSPB6 phosphopeptide) (other)
chain: GPHMERASLIQKAKLAEQAERYEDMAAFMKGAVEKGEELSCEERNLLSVAYKNVVGGQRAAWRVLSSIEQKSNEEGSAAAGPEVREYREKVETELQGVCDTVLGLLDSHLIKEAGDAESRVFYLKMKGDYYRYLAEVATGDDKKRIIDSARSAYQEAMDISKKEMPPTNPIRLGLALNFSVFHYEIANSPEEAISLAKTTFDEAMADLHTLSEDSYKDSTLIMQLLRDNLTLWTGSGSLRRASAPL
modifications: phosphoserine at the Ser that is Ser16 of HSPB6 (RRApSAPL)
With B3, in “SEC”, the “stoichiometry N” value is 2 and 4.

The values above are taken from article doi:10.1101/130245 (bioRxiv, 2017).
